The source of these data is publication PMC6944378, “Ecotin, a microbial inhibitor of serine proteases, blocks multiple complement dependent and independent microbicidal activities of human serum” (PLoS Pathogens, 2019).

Assay [1] has as its target T1, MASP-1 catalytic fragment (CCP1-CCP2-SP) (UniProt P48740 299-699).
T1 construct: MASP-1, active catalytic fragment containing the CCP1-CCP2-SP domains
T1 sequence: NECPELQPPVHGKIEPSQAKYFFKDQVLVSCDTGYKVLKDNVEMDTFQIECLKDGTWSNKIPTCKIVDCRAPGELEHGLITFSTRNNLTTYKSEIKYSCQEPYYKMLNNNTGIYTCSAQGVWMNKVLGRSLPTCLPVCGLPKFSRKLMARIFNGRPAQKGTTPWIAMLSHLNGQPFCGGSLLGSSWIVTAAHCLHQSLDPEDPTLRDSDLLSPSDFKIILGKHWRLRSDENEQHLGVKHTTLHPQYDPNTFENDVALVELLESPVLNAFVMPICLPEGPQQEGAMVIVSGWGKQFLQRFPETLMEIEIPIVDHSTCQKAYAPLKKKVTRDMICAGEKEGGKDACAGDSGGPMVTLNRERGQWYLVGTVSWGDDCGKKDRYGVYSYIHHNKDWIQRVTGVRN
Put plainly: equilibrium enzyme inhibition titration (residual activity; Green and Work); fixed protease incubated with increasing inhibitor to equilibrium; free enzyme read with 250 μM Z-L-Lys-SBzl + 500 μM DTNB; 20 mM HEPES, 145 mM NaCl, 5 mM CaCl2, 0.05% Triton X-100, pH 7.5; apparent KI corrected with KM where marked [a]. Particulars: both partners purified.

Assay [2] deals with T2, MASP-2 catalytic fragment (CCP1-CCP2-SP) (UniProt O00187 298-686).
T2 construct: MASP-2, active catalytic fragment containing the CCP1-CCP2-SP domains
T2 sequence (O00187 298-686): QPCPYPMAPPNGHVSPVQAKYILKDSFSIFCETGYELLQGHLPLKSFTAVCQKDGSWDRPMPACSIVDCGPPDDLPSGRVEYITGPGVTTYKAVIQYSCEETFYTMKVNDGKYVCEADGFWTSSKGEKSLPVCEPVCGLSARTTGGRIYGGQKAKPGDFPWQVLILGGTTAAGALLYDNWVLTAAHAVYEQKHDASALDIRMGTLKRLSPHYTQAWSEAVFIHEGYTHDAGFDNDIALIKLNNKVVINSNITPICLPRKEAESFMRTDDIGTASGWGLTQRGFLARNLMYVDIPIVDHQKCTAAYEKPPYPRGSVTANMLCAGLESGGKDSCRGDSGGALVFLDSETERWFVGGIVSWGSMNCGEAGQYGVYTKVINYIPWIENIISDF
The assay is described as above. The following applies: both partners purified.

The target of assay [3] is T3, MASP-3 catalytic fragment (CCP1-CCP2-SP) (UniProt P48740-2 299-728).
T3 sequence: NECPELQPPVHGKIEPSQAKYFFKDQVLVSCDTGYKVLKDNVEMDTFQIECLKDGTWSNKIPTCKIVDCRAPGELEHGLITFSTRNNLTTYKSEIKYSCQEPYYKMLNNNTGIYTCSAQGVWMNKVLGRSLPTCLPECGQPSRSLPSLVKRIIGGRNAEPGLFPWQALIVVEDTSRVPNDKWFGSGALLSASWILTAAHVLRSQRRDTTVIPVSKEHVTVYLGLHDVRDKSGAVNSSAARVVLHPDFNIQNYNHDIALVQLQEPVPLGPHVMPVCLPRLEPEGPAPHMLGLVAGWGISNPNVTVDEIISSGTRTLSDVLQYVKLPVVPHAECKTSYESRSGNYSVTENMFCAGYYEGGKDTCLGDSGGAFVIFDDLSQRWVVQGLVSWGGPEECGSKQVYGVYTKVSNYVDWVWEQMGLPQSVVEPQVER
The description is as above. The following applies: both partners purified.

Assay [4] deals with T2, MASP-2 catalytic fragment (CCP1-CCP2-SP). Put plainly: cell-based or functional assay.
Assay [5] has as its target T3, MASP-3 catalytic fragment (CCP1-CCP2-SP). The assay can be described thus: cell-based or functional assay.
Assay [6] shares this target. The assay can be described thus: equilibrium enzyme inhibition titration (residual activity; Green and Work); tight-binding format: fixed MASP-3 incubated with increasing ecotin to equilibrium; 250 μM Z-L-Lys-SBzl + 40 μM Thiol Fluorescent Probe IV; 20 mM HEPES, 145 mM NaCl, 5 mM CaCl2, 0.05% Triton X-100, pH 7.5. The following applies: both partners purified.
Assay [7] deals with T4, C1s catalytic fragment (CCP1-CCP2-SP) (UniProt P09871 292-688).
T4 construct: C1s, active catalytic fragment containing the CCP1-CCP2-SP domains
T4 sequence: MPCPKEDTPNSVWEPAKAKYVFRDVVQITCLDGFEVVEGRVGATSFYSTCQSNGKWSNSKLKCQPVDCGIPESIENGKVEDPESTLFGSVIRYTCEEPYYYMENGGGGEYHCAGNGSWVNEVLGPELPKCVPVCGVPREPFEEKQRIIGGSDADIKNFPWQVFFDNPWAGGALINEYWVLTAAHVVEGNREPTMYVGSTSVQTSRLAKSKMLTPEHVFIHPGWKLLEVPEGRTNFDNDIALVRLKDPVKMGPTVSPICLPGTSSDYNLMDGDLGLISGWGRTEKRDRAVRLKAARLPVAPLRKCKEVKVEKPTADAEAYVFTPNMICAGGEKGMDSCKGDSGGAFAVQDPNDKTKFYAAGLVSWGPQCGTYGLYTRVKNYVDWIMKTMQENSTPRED
The assay can be described thus: equilibrium enzyme inhibition titration (residual activity; Green and Work); fixed protease incubated with increasing ecotin to equilibrium; 250 μM Z-Gly-Arg-SBzl + 500 μM DTNB; 20 mM HEPES, 145 mM NaCl, 5 mM CaCl2, 0.05% Triton X-100, pH 7.5; apparent KI corrected with a KM from the literature. Particulars: both partners purified.

The target in a further assay is T5, factor D (human, UniProt P00746 26-253).
T5 construct: the KI was measured on recombinant FD; that the recombinant FD was made from it is surmised; also called FD; recombinant FD
T5 sequence (P00746 26-253): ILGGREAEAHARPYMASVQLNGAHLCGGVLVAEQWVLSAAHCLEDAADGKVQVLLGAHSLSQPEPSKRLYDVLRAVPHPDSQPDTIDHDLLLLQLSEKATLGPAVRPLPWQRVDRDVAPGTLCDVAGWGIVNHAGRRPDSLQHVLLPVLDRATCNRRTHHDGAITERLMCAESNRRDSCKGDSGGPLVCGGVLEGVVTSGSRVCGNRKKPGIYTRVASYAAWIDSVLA
The assay can be described thus: equilibrium enzyme inhibition titration (residual activity; Green and Work); fixed protease incubated with increasing inhibitor to equilibrium; free enzyme read with 250 μM Z-L-Lys-SBzl + 500 μM DTNB; 20 mM HEPES, 145 mM NaCl, 5 mM CaCl2, 0.05% Triton X-100, pH 7.5; apparent KI corrected with KM where marked [a]. The following applies: both partners purified.

For assay [8], the target named is T1, MASP-1 catalytic fragment (CCP1-CCP2-SP). Put plainly: […]; 20 mM HEPES, 145 mM NaCl, 5 mM CaCl2, 0.05% Triton X-100, pH 7.5; […]. Particulars: both partners purified.
Assay [9] addresses T2, MASP-2 catalytic fragment (CCP1-CCP2-SP). Described as above. Particulars: both partners purified.
Assay [10] concerns the target T3, MASP-3 catalytic fragment (CCP1-CCP2-SP). The description is as above. Particulars: both partners purified.

B1: L. major ecotin (ISP2) (natural protein)
chain: MPAGMSDAAGKTLADFKAPYPEPTSQQRRYVIFLDPKGDSKELNDYKVELIPGRVEKVDGTNVYRMGGNIEERTIDGWGYPYYIVTLTTMSGTLMMPLGDAALKRPRFVAMNTKNLYRYNSRLPIVVYMPKDGELRYRIWTVKSTGSGTAKSTKAREM
notes: His6-tag cleaved off with TEV protease; also called Leishmania major ISP2 ortholog; not shown: His6, N-terminal, cleaved
Regarding B1, the Ki in assay [1] turned out to be 2700 nM; in [2], 8.8 nM; in [3], 4.1 nM.

B2: P. aeruginosa ecotin (natural protein)
chain: not shown
notes: also called Pseudomonas aeruginosa ecotin ortholog
On to B2, for which the “IC50 of mannan-triggered LP-driven C3-deposition ELISA in 2% NHS (the most efficient LP inhibitor of the four orthologs)” value in assay [4] lay in the range of 84 to 190 nM. Besides, the figures for the Ki in assay [1], in [2] and in [3] were 34 nM, 76 nM and 9.6 nM, respectively.

B3: E. coli ecotin (natural protein)
chain: not shown
notes: also called recombinant E. coli ecotin
On to B3, for which the “half-life of Cy3-labelled pro-FD in NHS at 37 °C with 1 μM ecotin pre-incubated 10 min with the serum (3 hours without inhibitor)” value in [5] was determined as 10 h. Moreover, the Ki in [6] worked out at 0.52 nM; in assay [7], 25200 ± 4450 nM; in the assay with factor D, 4060 nM; in [1], 4200 nM; in [2], 11 nM.

B4: Y. pestis ecotin (natural protein)
chain: DTPTPLNQQQPLEKIAPYPQAEKGMSRQVIFLEPQKDESRFKVELLIGKTLNVDCNRHMLGGNLETRTLSGWGFDYLVMDKISQPASTMMACPEDSKPQVKFVTANLGDAAMQRYNSRLPIVVYVPQGVEVKYRIWEAGEDIRSAQVK
notes: also called Yersinia pestis ecotin ortholog
Turning to B4, the Ki in assay [8] amounted to 35000 nM; in assay [9], 2.2 nM; in assay [10], 800 nM.
